Source: US20110318349A1 (AbbVie / Abbott, published 2011)
Each block holds one binder with its values, some of them ahead of it.

How the values were obtained:
huTWEAK = molecular target: T1, huTWEAK (human, UniProt O43508 93-249, limits assumed); experiment: cell-based or functional assay
T1 sequence (looked up): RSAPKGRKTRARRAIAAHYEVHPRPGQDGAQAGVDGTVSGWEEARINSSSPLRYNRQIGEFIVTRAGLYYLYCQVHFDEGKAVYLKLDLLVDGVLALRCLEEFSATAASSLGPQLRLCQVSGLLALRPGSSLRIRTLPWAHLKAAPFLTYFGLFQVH

muTNFα = molecular target: T2, muTNFα (mouse, UniProt P06804 80-235); experiment: cell-based or functional assay
T2 sequence (looked up): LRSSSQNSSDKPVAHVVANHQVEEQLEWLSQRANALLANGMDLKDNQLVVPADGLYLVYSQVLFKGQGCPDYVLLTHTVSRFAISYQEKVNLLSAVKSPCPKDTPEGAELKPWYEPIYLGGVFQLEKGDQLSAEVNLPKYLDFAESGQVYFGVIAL

[1] = molecular target: T3, Recombinant Human TNF-α/TNFSF1A (human, UniProt P01375 77-233); experiment: SPR (Biacore), DVD-Ig captured on goat anti-human IgG Fc chip, antigen in solution; N-terminal TNF domain
T3 sequence (P01375 77-233 limits assumed): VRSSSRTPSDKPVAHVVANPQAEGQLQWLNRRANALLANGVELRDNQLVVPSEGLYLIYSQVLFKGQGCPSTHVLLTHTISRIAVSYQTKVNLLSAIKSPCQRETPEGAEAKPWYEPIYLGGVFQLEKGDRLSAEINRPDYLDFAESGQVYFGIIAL
Description: (§1) Binding of antibodies or DVD-Ig to a target antigen (for example, a purified recombinant target antigen) was determined by surface plasmon resonance-based measurements with a Biacore® T-100, T-200, or 3000 instrument (GE, New Jersey) using running HBS-EP (10 mM HEPES [pH 7.4], 150 mM NaCl, 3 mM EDTA, and 0.005% surfactant P20) at 25° C. All chemicals were obtained from GE (New Jersey) or otherwise from a different source as described in the text. For example, approximately 5000 RU of goat anti-human IgG, (Fcγ), fragment specific polyclonal antibody (Pierce Biotechnology Inc, Rockford, Ill.) diluted in 10 mM sodium acetate (pH 4.5) was directly immobilized across a CM5 research grade biosensor chip using a standard amine coupling kit according to manufacturer's instructions and procedures at 25 Unreacted moieties on the biosensor surface were blocked with ethanolamine Modified carboxymethyl dextran surface in flowcell 2,3, and 4 was used as a reaction surface. Modified carboxymethyl dextran surface with goat anti-human IgG in flow cell 1 was used as the reference surface. For kinetic analysis, rate equations derived from the 1:1 Langmuir binding model were fitted simultaneously to association and dissociation phases of all eight injections (using global fit analysis) with the use of Biaevaluation 4.0.1 software. Purified antibodies or DVD-Ig were diluted in HEPES-buffered saline for capture across goat anti-human IgG specific reaction surfaces. Antibodies or DVD-Ig to be captured as a ligand (1 μg/ml) were injected over reaction matrices at a flow rate of 50 μl/min. The association and dissociation rate constants, kₒₙ (M⁻¹s⁻¹) and koff (s⁻¹) were determined under a continuous flow rate of 500 min. Rate constants were derived by making kinetic binding measurements at different antigen concentrations ranging from 2-200 nM. Anti-TWEAK antibodies and DVD-Igs were evaluated by binding of the antibodies/DVD-Igs to the captured FLAG tagged TWEAK on a mouse anti FLAG biosensor chip. The concentrations of the DVD-Igs/Antibodies tested were between 100-0.01 nM.
(§2) The equilibrium dissociation constant (M) of the reaction between antibodies or DVD-Igs and the target antigen was then calculated from the kinetic rate constants by the following formula: KD=koff/kₒₙ. Binding was recorded as a function of time and kinetic rate constants are calculated.

[2] = molecular target: T4, FLAG tagged TWEAK (Recombinant Human TWEAK) (human, UniProt O43508 106-249, limits assumed); experiment: SPR (Biacore), FLAG tagged TWEAK captured on mouse anti-FLAG chip, DVD-Ig in solution; C-terminal TWEAK (seq. 2) domain
T4 construct: Captured on a mouse anti-FLAG biosensor chip in the Biacore assay of the anti-TWEAK antibodies and DVD-Igs; also called TWEAK/TNSF12; not shown: FLAG tag
T4 sequence (looked up): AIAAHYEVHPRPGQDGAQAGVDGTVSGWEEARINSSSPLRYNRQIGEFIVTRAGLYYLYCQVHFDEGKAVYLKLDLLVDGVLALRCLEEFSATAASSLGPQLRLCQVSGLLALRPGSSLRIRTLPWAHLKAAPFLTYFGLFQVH
Description: as §1, with “Antibodies or DVD-Ig to be captured as a ligand (1 μg/ml) were injected over reaction matrices at a flow rate of 50 μl/min.” left out, “Rate constants were derived by making kinetic binding measurements at different antigen concentrations ranging from 2-200 nM.” left out, “The concentrations of the DVD-Igs/Antibodies tested were between 100-0.01 nM.” left out
as §2

[3] = molecular target: T4, FLAG tagged TWEAK (Recombinant Human …); experiment: SPR (Biacore), FLAG tagged TWEAK captured on mouse anti-FLAG chip, antibody in solution
Description: as §1, §2

[4] = molecular target: T3, Recombinant Human TNF-α/TNFSF1A; experiment: SPR (Biacore), antibody captured on goat anti-human IgG Fc chip, antigen in solution (row printed a second time)
Description: Binding of antibodies or DVD-Ig to a target antigen (for example, a purified recombinant target antigen) was determined by surface plasmon resonance-based measurements with a Biacore® T-100, T-200, or 3000 instrument (GE, New Jersey) using running HBS-EP (10 mM HEPES [pH 7.4], 150 mM NaCl, 3 mM EDTA, and 0.005% surfactant P20) at 25° C. All chemicals were obtained from GE (New Jersey) or otherwise from a different source as described in the text. […] The association and dissociation rate constants, kₒₙ (M⁻¹s⁻¹) and koff (s⁻¹) were determined under a continuous flow rate of 500 min. […] Anti-TWEAK antibodies and DVD-Igs were evaluated by binding of the antibodies/DVD-Igs to the captured FLAG tagged TWEAK on a mouse anti FLAG biosensor chip. […]
as §2

[5] = molecular target: T3, Recombinant Human TNF-α/TNFSF1A; experiment: SPR (Biacore), antibody captured on goat anti-human IgG Fc chip, antigen in solution
Description: as §1, with “Antibodies or DVD-Ig to be captured as a ligand (1 μg/ml) were injected over reaction matrices at a flow rate of 50 μl/min.” left out, “Rate constants were derived by making kinetic binding measurements at different antigen concentrations ranging from 2-200 nM.” left out, “The concentrations of the DVD-Igs/Antibodies tested were between 100-0.01 nM.” left out
as §2

C-terminal VD TWEAK Neutralization Assay EC50 nM (IL-8 in supernatant of A375 cells) (huTWEAK): 0.238 nM
B1: DVD1132 (bispecific antibody, human IgG1, kappa)
heavy: not shown
light: QIVLSQSPAILSASPGEKVTMTCRASSSVSYMHWFQQKPGSSPKPWIYATSNLASGVPARFSGSGSGTSYSLTISRVEAEDAATYYCQQWSSSPLTFGAGTKLELKRTVAAPDVVMTQSPLSLPVTPGEPASISCRSSQSLVSSKGNTYLHWYLQKPGQSPQFLIYKVSNRFSGVPDRFSGSGSGTDFTLKISRVEAEDVGVYFCSQSTHFPRTFGGGTKVEIKRTVAAPSVFIFPPSDEQLKSGTASVVCLLNNFYPREAKVQWKVDNALQSGNSQESVTEQDSKDSTYSLSSTLTLSKADYEKHKVYACEVTHQGLSSPVTKSFNRGEC
N-terminal VD TNFα Neutralization Assay EC50 nM (L929 cell viability, WST-1) (muTNFα): 0.196 nM

Kd [1]: 0.062 nM
koff [1]: 0.00082 s⁻¹
kon [1]: 1.3e+07 M⁻¹ s⁻¹
Kd [2]: < 0.0083 nM
koff [2]: < 1e-06 s⁻¹
kon [2]: 120000 M⁻¹ s⁻¹
C-terminal VD TWEAK Neutralization Assay EC50 nM (IL-8 in supernatant of A375 cells) (huTWEAK): 0.136 nM
B2: DVD1140 (bispecific antibody, human IgG1, kappa)
heavy: not shown
light: QIVLSQSPAILSASPGEKVTMTCRASSSVSYMHWFQQKPGSSPKPWIYATSNLASGVPARFSGSGSGTSYSLTISRVEAEDAATYYCQQWSSSPLTFGAGTKLELKRTVAAPDVVMTQSPLSLSVSLGDQASISCRSSQSLVSSKGNTYLHWYLQKPGQSPKFLIYKVSNRFSGVPDRFSGSGSGTDFTLKISRVAAEDLGVYFCSQSTHFPRTFGGGTTLEIKRTVAAPSVFIFPPSDEQLKSGTASVVCLLNNFYPREAKVQWKVDNALQSGNSQESVTEQDSKDSTYSLSSTLTLSKADYEKHKVYACEVTHQGLSSPVTKSFNRGEC
notes: also called DVD1140H/DVD1140L
N-terminal VD TNFα Neutralization Assay EC50 nM (L929 cell viability, WST-1) (muTNFα): 1.06 nM

Kd [1]: 0.059 nM
koff [1]: 0.00058 s⁻¹
kon [1]: 9.9e+06 M⁻¹ s⁻¹
B4: DVD1127 (bispecific antibody, human IgG1, kappa)
heavy: not shown
light: QIVLSQSPAILSASPGEKVTMTCRASSSVSYMHWFQQKPGSSPKPWIYATSNLASGVPARFSGSGSGTSYSLTISRVEAEDAATYYCQQWSSSPLTFGAGTKLELKRTVAAPDVVMTQSPLSLPVTPGEPASISCRSSQSLVSSKGNTYLHWYLQKPGQSPQFLIYKVSNRFSGVPDRFSGSGSGTDFTLKISRVEAEDVGVYFCSQSTHFPRTFGGGTKVEIKRTVAAPSVFIFPPSDEQLKSGTASVVCLLNNFYPREAKVQWKVDNALQSGNSQESVTEQDSKDSTYSLSSTLTLSKADYEKHKVYACEVTHQGLSSPVTKSFNRGEC
notes: also called DVD1127H/DVD1127L
N-terminal VD TNFα Neutralization Assay EC50 nM (L929 cell viability, WST-1) (muTNFα): 0.703 nM

TWEAK Neutralization Assay EC50 nM (IL-8 in supernatant of A375 cells) (huTWEAK): 0.396 nM
Kd [3]: < 0.00025 nM
koff [3]: 2.5e-06 s⁻¹
kon [3]: > 1e+07 M⁻¹ s⁻¹
B6: AB211 (antibody, human IgG1, kappa, V domains shown)
VH: EVQLVESGGGLVQPGGSLRLSCAASGFTFSRYAMSWVRQAPGKGLEWVAEISSGGSYPYYPDTVTGRFTISRDNAKNSLYLQMNSLRAEDTAVYYCARVLYYDYDGDRIEVMDYWGQGTLVTVSS
VL: DVVMTQSPLSLPVTPGEPASISCRSSQSLVSSKGNTYLHWYLQKPGQSPQFLIYKVSNRFSGVPDRFSGSGSGTDFTLKISRVEAEDVGVYFCSQSTHFPRTFGGGTKVEIKR

N-terminal VD TWEAK Neutralization Assay EC50 nM (IL-8 in supernatant of A375 cells) (huTWEAK): 0.462 nM
B8: DVD1128 (bispecific antibody, human IgG1, kappa)
heavy: not shown
light: DVVMTQSPLSLPVTPGEPASISCRSSQSLVSSKGNTYLHWYLQKPGQSPQFLIYKVSNRFSGVPDRFSGSGSGTDFTLKISRVEAEDVGVYFCSQSTHFPRTFGGGTKVEIKRTVAAPQIVLSQSPAILSASPGEKVTMTCRASSSVSYMHWFQQKPGSSPKPWIYATSNLASGVPARFSGSGSGTSYSLTISRVEAEDAATYYCQQWSSSPLTFGAGTKLELKRTVAAPSVFIFPPSDEQLKSGTASVVCLLNNFYPREAKVQWKVDNALQSGNSQESVTEQDSKDSTYSLSSTLTLSKADYEKHKVYACEVTHQGLSSPVTKSFNRGEC

The remaining lines, values behind:

B3: DVD1135 (bispecific antibody, human IgG1, kappa)
heavy: not shown
light: QIVLSQSPAILSASPGEKVTMTCRASSSVSYMHWFQQKPGSSPKPWIYATSNLASGVPARFSGSGSGTSYSLTISRVEAEDAATYYCQQWSSSPLTFGAGTKLELKRTVAAPDVVMTQSPLSLSVSLGDQASISCRSSQSLVSSKGNTYLHWYLQKPGQSPKFLIYKVSNRFSGVPDRFSGSGSGTDFTLKISRVAAEDLGVYFCSQSTHFPRTFGGGTTLEIKRTVAAPSVFIFPPSDEQLKSGTASVVCLLNNFYPREAKVQWKVDNALQSGNSQESVTEQDSKDSTYSLSSTLTLSKADYEKHKVYACEVTHQGLSSPVTKSFNRGEC
C-terminal VD TWEAK Neutralization Assay EC50 nM (IL-8 in supernatant of A375 cells) (huTWEAK): 4.34 nM
N-terminal VD TNFα Neutralization Assay EC50 nM (L929 cell viability, WST-1) (muTNFα): 1.95 nM

B5: DVD1131 (bispecific antibody, human IgG1, kappa)
heavy: not shown
light: QIVLSQSPAILSASPGEKVTMTCRASSSVSYMHWFQQKPGSSPKPWIYATSNLASGVPARFSGSGSGTSYSLTISRVEAEDAATYYCQQWSSSPLTFGAGTKLELKRTVAAPSVFIFPPDVVMTQSPLSLPVTPGEPASISCRSSQSLVSSKGNTYLHWYLQKPGQSPQFLIYKVSNRFSGVPDRFSGSGSGTDFTLKISRVEAEDVGVYFCSQSTHFPRTFGGGTKVEIKRTVAAPSVFIFPPSDEQLKSGTASVVCLLNNFYPREAKVQWKVDNALQSGNSQESVTEQDSKDSTYSLSSTLTLSKADYEKHKVYACEVTHQGLSSPVTKSFNRGEC
C-terminal VD TWEAK Neutralization Assay EC50 nM (IL-8 in supernatant of A375 cells) (huTWEAK): 0.123 nM

B7: AB212 (antibody, human IgG1, kappa, V domains shown)
VH: EVQLVESGGGLVRPGGSLKLFCAASGFTFSRYAMSWVRQSPEKRLEWVAEISSGGSYPYYPDTVTGRFTISRDNAKNTLYLEMSSLKSEDTAMYYCARVLYYDYDGDRIEVMDYWGQGTAVIVSS
VL: DVVMTQSPLSLSVSLGDQASISCRSSQSLVSSKGNTYLHWYLQKPGQSPKFLIYKVSNRFSGVPDRFSGSGSGTDFTLKISRVAAEDLGVYFCSQSTHFPRTFGGGTTLEIKR
Kd [3]: 0.0018 nM
koff [3]: 2.6e-05 s⁻¹
kon [3]: 1.1e+07 M⁻¹ s⁻¹

B9: AB210 (antibody, human IgG1, kappa, V domains shown)
VH: EFQLQQSGPELVKPGASVRISCKASGYSFTDYNMNWVKQSNGKSLEWVGVINPNYGSSTYNQKFKGKATLTVDQSSSTAYMQLNSLTSEDSAVYYCARKWGQLGRGFFDVWGTGTTVTVSS
VL: QIVLSQSPAILSASPGEKVTMTCRASSSVSYMHWFQQKPGSSPKPWIYATSNLASGVPARFSGSGSGTSYSLTISRVEAEDAATYYCQQWSSSPLTFGAGTKLELKR
notes: also called TNF parent antibody; muTNFα Parent Antibody
TNFα Neutralization Assay EC50 nM (L929 cell viability, WST-1) (muTNFα): 0.717 nM
Kd [4]: 0.073 nM
koff [4]: 0.00041 s⁻¹
Kd [5]: 0.073 nM
koff [5]: 0.00041 s⁻¹
kon [5]: 5.6e+06 M⁻¹ s⁻¹
